Measurements published in publication PMC10304930.

Tests used:
[1] = target: authentic main protease (M^pro) from SARS-CoV, without tag (SARS-CoV) (UniProt P0C6X7)
[2] = target: authentic main protease (M^pro) from SARS-CoV, without tag (SARS-CoV) (UniProt P0C6X7); assay: SEC; […]; 40 mM Tris-HCl, 100 mM NaCl, 1 mM DTT, pH 8.0; 0.5 mL/min; […]
[3] = target: tagged main protease from SARS-CoV with 34 extra amino acids at the N-terminus (SARS-CoV) (UniProt P0C6X7)

| Substance | kcat/Km, FRET-based cleavage assay (Dabcyl/Edans peptide substrate) [1] [M⁻¹ s⁻¹] | stoichiometry N [2] | kcat/Km, FRET-based cleavage assay (Dabcyl/Edans peptide substrate) [3] [M⁻¹ s⁻¹] |
| --- | --- | --- | --- |
| authentic main protease (M^pro) from SARS-CoV, without tag (from UniProt P0C6X7) (enzyme) | 2790 | 2 |  |
| tagged main protease from SARS-CoV with 34 extra amino acids at the N-terminus (from UniProt P0C6X7) (enzyme) |  |  | 17 |
